T1: GRIP1_5, Q9Y3R0
T1 sequence (Q9Y3R0 568-668, limits assumed, looked up): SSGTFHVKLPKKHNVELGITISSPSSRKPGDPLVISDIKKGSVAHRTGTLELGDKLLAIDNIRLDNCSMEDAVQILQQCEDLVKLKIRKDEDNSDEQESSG

T2: HTRA3, P83110
T2 sequence (P83110 354-453, limits assumed, looked up): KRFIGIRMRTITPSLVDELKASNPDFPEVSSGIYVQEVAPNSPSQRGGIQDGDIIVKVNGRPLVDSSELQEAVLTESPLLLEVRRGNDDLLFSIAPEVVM

T3: APBA1_1, Q02410
T3 sequence (Q02410 651-752, limits assumed, looked up): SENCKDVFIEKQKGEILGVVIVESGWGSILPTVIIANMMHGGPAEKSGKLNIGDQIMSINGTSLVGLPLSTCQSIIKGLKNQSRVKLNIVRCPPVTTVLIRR

T4: DLG3_3, Q92796
T4 sequence (Q92796 374-475, limits assumed, looked up): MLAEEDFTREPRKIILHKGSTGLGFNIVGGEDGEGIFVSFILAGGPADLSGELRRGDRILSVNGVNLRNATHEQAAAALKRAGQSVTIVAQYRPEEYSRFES

T5: APBA1_2, Q02410
T5 sequence (Q02410 742-832, limits assumed, looked up): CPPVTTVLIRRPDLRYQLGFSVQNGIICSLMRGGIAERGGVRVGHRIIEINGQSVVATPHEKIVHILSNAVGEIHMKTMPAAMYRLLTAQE

T6: LNX2_2, Q8N448
T6 sequence (Q8N448 334-432, limits assumed, looked up): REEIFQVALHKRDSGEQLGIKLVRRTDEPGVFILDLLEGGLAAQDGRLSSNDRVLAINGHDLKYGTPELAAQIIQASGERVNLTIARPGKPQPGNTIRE

T7: FRMPD1, Q5SYB0
T7 sequence (Q5SYB0 52-145, limits assumed, looked up): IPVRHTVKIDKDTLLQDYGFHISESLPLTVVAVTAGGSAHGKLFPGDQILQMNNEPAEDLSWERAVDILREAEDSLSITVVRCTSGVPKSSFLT

T8: DFNB31_2, Q9P202
T8 sequence (Q9P202 274-371, limits assumed, looked up): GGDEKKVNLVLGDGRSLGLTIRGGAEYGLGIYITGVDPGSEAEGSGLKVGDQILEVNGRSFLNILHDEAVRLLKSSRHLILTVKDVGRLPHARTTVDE

T9: DVL3, Q92997
T9 sequence (Q92997 244-331, limits assumed, looked up): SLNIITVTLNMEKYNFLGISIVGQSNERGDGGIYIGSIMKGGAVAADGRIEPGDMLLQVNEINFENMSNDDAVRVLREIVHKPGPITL


Key:
Test in all cases: holdup assay
Set-up in all cases: key: below the threshold = too weak to quantify, mostly under pKd 3.1 to 4
Conditions in all cases: plain residues with an end cap or a label only (N-terminal biotin on a linker: ado-ado)
[1] = biological target: Inadl_10, Q8NI35
Inadl_10, Q8NI35, sequence (Q8NI35 1673-1763): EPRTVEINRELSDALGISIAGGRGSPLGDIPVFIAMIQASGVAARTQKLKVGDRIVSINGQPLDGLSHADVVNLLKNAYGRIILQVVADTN

[2] = biological target: FRMPD3, Q5JV73
FRMPD3, Q5JV73, sequence (Q5JV73 12-100): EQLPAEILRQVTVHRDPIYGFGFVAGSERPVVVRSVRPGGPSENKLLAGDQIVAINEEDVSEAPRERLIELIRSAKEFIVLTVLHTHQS

[3] = biological target: SCRIB_1, Q14160
SCRIB_1, Q14160, sequence (Q14160 718-814): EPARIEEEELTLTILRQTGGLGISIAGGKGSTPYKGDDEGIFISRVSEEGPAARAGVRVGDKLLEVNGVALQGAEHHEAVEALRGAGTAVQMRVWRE

[4] = biological target: Inadl_4, Q8NI35
Inadl_4, Q8NI35, sequence (Q8NI35 547-651): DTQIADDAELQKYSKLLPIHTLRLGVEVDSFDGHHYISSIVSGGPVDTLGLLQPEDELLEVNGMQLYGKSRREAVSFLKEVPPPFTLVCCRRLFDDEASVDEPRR

[5] = biological target: T1, GRIP1_5, Q9Y3R0
[6] = biological target: AHNAK1, Q09666
AHNAK1, Q09666, sequence (Q09666 4-100): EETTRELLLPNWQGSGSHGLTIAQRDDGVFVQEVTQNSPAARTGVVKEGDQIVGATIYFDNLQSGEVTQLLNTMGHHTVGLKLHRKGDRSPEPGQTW

[7] = biological target: NOS1, P29475
NOS1, P29475, sequence (P29475 9-101): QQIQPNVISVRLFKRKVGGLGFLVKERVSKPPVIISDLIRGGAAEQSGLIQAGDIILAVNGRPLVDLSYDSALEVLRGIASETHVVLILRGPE

[8] = biological target: Inadl_8, Q8NI35
Inadl_8, Q8NI35, sequence (Q8NI35 1425-1530): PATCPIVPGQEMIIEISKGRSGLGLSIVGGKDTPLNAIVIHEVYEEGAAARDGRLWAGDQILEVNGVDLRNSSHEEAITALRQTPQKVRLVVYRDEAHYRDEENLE

[9] = biological target: DLG1_3, Q12959
DLG1_3, Q12959, sequence (Q12959 457-571): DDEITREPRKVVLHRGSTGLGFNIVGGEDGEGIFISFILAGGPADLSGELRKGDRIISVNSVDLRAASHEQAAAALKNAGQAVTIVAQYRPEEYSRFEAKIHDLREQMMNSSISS

[10] = biological target: PTPN3, P26045
PTPN3, P26045, sequence (P26045 505-587): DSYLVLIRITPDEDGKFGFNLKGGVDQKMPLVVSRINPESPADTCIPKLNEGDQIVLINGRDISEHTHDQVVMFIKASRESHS

[11] = biological target: GRIP2_3, Q9C0E4
GRIP2_3, Q9C0E4, sequence (Q9C0E4 238-339): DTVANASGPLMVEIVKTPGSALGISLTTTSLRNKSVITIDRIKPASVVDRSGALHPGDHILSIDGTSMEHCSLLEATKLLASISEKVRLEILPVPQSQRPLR

[12] = biological target: NHERF4_1, Q86UT5-2
NHERF4_1, Q86UT5-2, sequence (Q86UT5 other isoform, or with tags, fused parts or gaps): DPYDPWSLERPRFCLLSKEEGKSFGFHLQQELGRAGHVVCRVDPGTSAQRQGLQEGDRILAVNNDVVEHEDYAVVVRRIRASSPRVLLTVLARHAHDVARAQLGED

[13] = biological target: Inadl_5, Q8NI35
Inadl_5, Q8NI35, sequence (Q8NI35 673-780): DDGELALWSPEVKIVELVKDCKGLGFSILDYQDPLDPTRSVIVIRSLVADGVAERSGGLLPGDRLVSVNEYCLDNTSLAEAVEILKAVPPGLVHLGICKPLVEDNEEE

[14] = biological target: T2, HTRA3, P83110
[15] = biological target: PDZRN4_1, Q6ZMN7
PDZRN4_1, Q6ZMN7, sequence (Q6ZMN7 213-318): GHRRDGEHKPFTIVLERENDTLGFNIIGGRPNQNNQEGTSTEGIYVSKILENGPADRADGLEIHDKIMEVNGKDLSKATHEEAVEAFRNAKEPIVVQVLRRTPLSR

[16] = biological target: T3, APBA1_1, Q02410
[17] = biological target: T4, DLG3_3, Q92796
[18] = biological target: T5, APBA1_2, Q02410
[19] = biological target: GOPC, Q9HD26
[20] = biological target: PDLIM1, O00151
PDLIM1, O00151, sequence (O00151 1-87): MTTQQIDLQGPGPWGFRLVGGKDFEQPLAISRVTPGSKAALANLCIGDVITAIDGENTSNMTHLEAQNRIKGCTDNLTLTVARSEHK

[21] = biological target: Inadl_9, Q8NI35
Inadl_9, Q8NI35, sequence (Q8NI35 1530-1615): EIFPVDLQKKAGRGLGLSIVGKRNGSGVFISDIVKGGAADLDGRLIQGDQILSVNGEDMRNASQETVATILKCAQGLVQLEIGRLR

[22] = biological target: T6, LNX2_2, Q8N448
[23] = biological target: T7, FRMPD1, Q5SYB0
[24] = biological target: TJP1_3, Q07157
TJP1_3, Q07157, sequence (Q07157 416-512): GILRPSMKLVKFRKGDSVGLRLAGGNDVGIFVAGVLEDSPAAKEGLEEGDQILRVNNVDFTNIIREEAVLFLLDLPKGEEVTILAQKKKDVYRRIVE

[25] = biological target: T8, DFNB31_2, Q9P202
[26] = biological target: DLG1_2, Q12959
DLG1_2, Q12959, sequence (Q12959 314-412): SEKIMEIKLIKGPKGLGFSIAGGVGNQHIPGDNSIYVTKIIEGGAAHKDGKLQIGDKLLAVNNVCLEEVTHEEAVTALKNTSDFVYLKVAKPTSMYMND

[27] = biological target: TJP2_1, Q9UDY2
TJP2_1, Q9UDY2, sequence (Q9UDY2 24-128): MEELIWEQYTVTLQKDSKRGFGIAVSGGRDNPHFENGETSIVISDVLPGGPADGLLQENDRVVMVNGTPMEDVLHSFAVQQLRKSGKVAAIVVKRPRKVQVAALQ

[28] = biological target: T9, DVL3, Q92997
[29] = biological target: SCRIB_3, Q14160
SCRIB_3, Q14160, sequence (Q14160 999-1103): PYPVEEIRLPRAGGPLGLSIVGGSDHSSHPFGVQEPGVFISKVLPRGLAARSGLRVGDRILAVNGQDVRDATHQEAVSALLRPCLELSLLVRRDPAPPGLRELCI

| Binder | pKd [1] | pKd [2] | pKd [3] | pKd [4] | pKd [5] | pKd [6] | pKd [7] | pKd [8] | pKd [9] | pKd [10] | pKd [11] | pKd [12] | pKd [13] | pKd [14] | pKd [15] | pKd [16] | pKd [17] | pKd [18] | pKd [19] | pKd [20] | also measured |
| --- | --- | --- | --- | --- | --- | --- | --- | --- | --- | --- | --- | --- | --- | --- | --- | --- | --- | --- | --- | --- | --- |
| KPGKGSETVV [FZD4, Q9ULV1] | below the threshold | below the threshold | 4.04 | below the threshold | below the threshold | below the threshold | 3.81 | 3.49 | below the threshold | 4.13 | below the threshold | below the threshold | below the threshold | below the threshold | 3.51 | below the threshold | 4.02 | 3.64 | 3.73 | below the threshold | pKd [21]: below the threshold; pKd [22]: 4.92; pKd [23]: below the threshold; pKd [24]: below the threshold; pKd [25]: below the threshold; pKd [26]: 5.12; pKd [27]: below the threshold; pKd [28]: below the threshold; pKd [29]: 3.94 |
| TRKRSGEAAV [PFKM, P08237] | below the threshold | below the threshold | below the threshold | below the threshold | below the threshold | below the threshold | 4.16 | 3.57 | below the threshold | 4.15 | below the threshold | below the threshold | below the threshold | below the threshold | below the threshold | below the threshold | below the threshold | 3.9 | below the threshold | below the threshold | pKd [21]: below the threshold; pKd [22]: 3.53; pKd [23]: below the threshold; pKd [24]: below the threshold; pKd [25]: below the threshold; pKd [26]: 3.95; pKd [27]: below the threshold; pKd [28]: below the threshold; pKd [29]: below the threshold |
